From the DeepSol protein solubility set

Test: soluble on expression in E. coli; label from the status in PepcDB or PDB records

Soluble on expression in E. coli, soluble:
MRVMAFVQARMGSTRLPGKSLMPVWNGMGVLEMTLRRALRARTLSGVVLCTSTDPACDALETLASGLGVQAFRGPEDDVLTRYALATERFEPDAVVRICADSPLVCPEGIDALVAFFRDEGLDYAAHAMDGTGLPDGLGCEVFTAAALAQAHAEATAPEDREHVSLFIRHRPERFRQATLAADAALRAPGVSLDVDTQDDLDALRRFIMALPPSEGPFWSADAIAPLARGLHTPPQGTSMDIASDDYHDFFIRDGKLIGEFEQMYRKSRHAPWHQDEACDKWFNKVSAALVGHALDDPSVRTVFEVGSGLGYFLSQFAGEGRTLTGTDVSATAVEKARALFPGISFEVDDIRFEGRRGPYDLCLMQAVCWCIFPHMDDVVRNVTATVRPGGYLFLGECFQPLDGPFAGKDVIPTPDALIGHFSHAFDTVADVRVTRGEMGGGPIIYWLGRRRGLEHHHHHH, GSHMGFLSGKRILVTGVASKLSIAYGIAQAMHREGAELAFTYQNDKLKGRVEEFAAQLGSDIVLQCDVAEDASIDTMFAELGKVWPKFDGFVHSIGFAPGDQLDGDYVNAVTREGFKIAHDISSYSFVAMAKACRSMLNPGSALLTLSYLGAERAIPNYNVMGLAKASLEANVRYMANAMGPEGVRVNAISAGPIRTLAASGIKDFRKMLAHCEAVTPIRRTVTIEDVGNSAAFLCSDLSAGISGEVVHVDGGFSIAAMNELELK, GPGSMALATTGYPALASSHSFANASTSVMTASAMAVVRRAATTTGASAATTTPQVVHYSKLGMDGFTDIKFNTAADELLELVETKVDALDSAAVEDVSCNGGVLTLETTDRGTFILNKQAPNVQLWLSSPISGPHHYDMITVTQGGHEKVSWKSDHDGHDLVKKLEEELTEVLGTDFKV, GPGSMKKELRVGVLISGRGSNLEALAKAFSTEESSVVISCVISNNAEARGLLIAQSYGIPTFVVKRKPLDIEHISTVLREHDVDLVCLAGFMSILPEKFVTDWHHKIINIHPSLLPSFKGLNAQEQAYKAGVKIAGCTLHYVYQELDAGPIIMQAAVPVLREDTAESLASRILAAEHVCYPKGVKLIAQDKIKLCDDGTVQCTGEDELFLFQENF, MDMISAFDIFKIGIGPSSSHTVGPMNAGKSFIDRLESSGLLTATSHIVVDLYGSLSLTGKGHATDVAIIMGLAGNSPQDVVIDEIPAFIELVTRSGRLPVTSGAHIVDFPVAKNIIFHPEMLPRHENGMRITAWKGQEELLSKTYYSVGGGFIVEEEHFGLSYDVETPVPYDFHSAGELLKMCDYNGLSISGLMMHNELALRSKAEIDAGFARIWQVMHDGIERGMNTEGVLPGPLNVPRRAVALRRQLVSSDNISNDPMNVIDWINMYALAVSEENAAGGRVVTAPTNGACGIIPAVLAYYDKFRRPVNERSIARYFLAAGAIGALYKMNASISGAEVGCQGEIGVACSMAAAGLTELLGGSPAQVCNAAEIAMEHNLGLTCDPVAGQVQIPCIERNAINAVKAVNAARMAMRRTSAPRVSLDKVIETMYETGKDMNDKYRETSRGGLAIKVVCG

Soluble on expression in E. coli, not soluble:
MGSDKIHHHHHHMQNGYYQATGGMVTQFNKLDVITNNLANINTSGYKRDDVVIADFKRIFKETQDELPIENHTRDASRFVNTTIDGIPQVSQEYTDFSLGSLKATNNPLDLAMTREDAFYLVQTKDGEVRLTKDGNFQLDDEGYLVNKQGYKVLSSDYFNNPQNAGIRIPNGAVQISVDKNGSIEVDGAQNARLFVAQVDDIRALQKDGDNVYKIDDLTRIRDLKNSNAIRQGFSQGSNVNPVTEMVGLIEANRMVEMYQKVMTAHMDDLNQEAINKLAAVK, MSVIRKEDGAGGKYMVELLKKHVFPKIASRAGEIALEDMEDSSDFCDDFAFTTDSYVVSPPIFRGGSIGSLSVCGTSNDLAVMGAKPEFMSLALVIQDGFPLGDFRRIMDDIRDSVELVNLSIITGDTKVVESNVGIIVNTAGIGRRSEELERNLEVLRELRDYPYRWVRDKGLKEGDAIIVSGSIAEHAAVIMAERMGFEVEFKSDVYPVWLFVREALRRGGVTAMKDPTRGGIAAALNEMAEKSGVGIKIFEERIPLKDEVRGLCELLGLDPLTMANEGKVVFGVHPEMADEVLKALHKAGQKEAEIIGYATKEFAEVVLETAVGTTRVVPQPISDPIPRVC, SLPEKVLVAGNNVRNVAESASKAGFEVFAITKFVDADLRIYCREVERVDDSLPEKEIAKKIEDKAEEIDAKVVLCSGFETLRVRGELLCNPYGKVERVANKLKFYRELEKAGLPFPELLGEGERGIIKPVVGGGGEEVVMGEEVPKGFLKQRFVSGTPCSVSVIANGERALPLACNLIYAGWKEMNASGFRYSGNMTPFIVEEEIRKELERLAVEAVELFGLAGSVGVDFVLAEKPYILEINPRFQGSLDSVEWSCDVNLFKMHAEAFDGRLPERVRPRRYALRAILFSPRDVEIKENLAGNPFYADVPGKGERYGKNDPLVSILAAGKSREDVERRVLERRDLFLSLA, MAKKNPIQPGPEGYIPTPAAFQGCDLPPPGKALLYGEIVDEEVAMREAAKALLTRRNPTIFPGPLVLWGWNADAMEKAKAVLELAMEIPNCRIIPMPDYRPKYPKIDPEAEINPNHPNLTILHNKIEACIFVGVHCHYANLSLRMIRAGTNCFTIALCAEMGHEDAMVSLRDVHADEIRKFRDVVVEVRKELGIEWEPKLPPENPSLPKEDWVKISPLDFGEYAYLLIPRRGEIVEESE, MGSDKIHHHHHHMSRDKTLFVCQECGSISNKWLGRCPDCGAWNSFVEQRVEKTVAKSQTTYATASPPQFLHAVPITDVGRSTTGLAELDRVLGGGQVPGAAILLGGEPGIGKSTLLLQTAHHLAQVSKVLYVTGEESAAQVALRAQRLGLGRSPVRVVAENHLEAIEGLLRGEQPALVLVDSIQTVYTDTLQSAPGSVAQVRECAARLVRFAKATGTTVWLVGHVTKEGAIAGPRVLEHMVDTVLYFEGEAGSPYRIVRAIKNRFGAANELGVFQMHEEGLSEVANPSQLFLSQHERPVAGSVVLATQEGTRPLLVEVQALVTPSPLANPRRVAIGLDPNRLSLLLAILHRHGDSMFFDQDVFVNIAGGIKVNEPAADLAVALALVSSFRNKPLEGRRVVFGELGLAGEVRPVAGTEARVREAVKLGFKGAILPRSDKISAAATFKLHPAGRLGDAMEAAFAAE, MGSDKIHHHHHHMTHLKIFLLLIVCALSVLDGKAQTGIALTDELNGKRIGVIGDSYVRNHKEPFENTWHYKFAKKHGMEYFNYGKNGNSIAYSSPRWGKAMYLRYAEMADSLDYVIVIGGHNDAFKLDSIGGIDNFKDKMEILCKGLVEKYPTAKIFFFTRWNCKNFKGSDSEKVVDAMIEVCGNYSIPIFDCARKGSIYADNDTFRRIYFQKSKNNTDTAHLNSKGHDRFLKVAESFLLQY, MSLDKNSKSFGEANERIGNAIHHVCLNASDAKFIKSNIQESYQSWANVLYDRVFLNWGLCDKKIYRELSSLNFDFSTVGFFPHVYGQSLLFYLIRPLIKIHFFNKRLLDVGCGNGVGLKISSELLKTRYALGIDLVSKLVTNSNNSFYIEDKINYMQADAENMAIANESFDIVTNLESSHLYPQIEHFFSEVERVLAPNGFFCYADVHFDVKQQAQRLEAFVKTKKNLRIIEKHNITKMVQASIYQRLIVNEKGFYQLAQYLLGPDKIHYTSELANVASSMGLMFLPWWRIRFKNPALQALGKFARRCKHWNKKYYFYYLIQKIDSEGHHHHHH, MGSDKIHHHHHHMAERLGILVGGGPAPGINSVISSVTIEAINNGLEVIGIYDGFKHLVEGKTNMVKKLSIEDVSRIHIEGGSILRTSRVNPAKSEETLEKTVQTLKKLGIKYLVTIGGDDTAFSASKVCERSKGEIKVVHVPKTIDNDLPLPENMPTFGFETARHVATELVYNLMQDSRTTNRWYFVAMMGREAGHLALGVGKAASATITIIPEEFKEGVTLEEVCDVLDGAILKRKLMGRDDGVAVIGEGIAEKMDPEELANIPGVIVEKDPHGHLRLAEIPLATILKRAIERRYAERGERIHIVDVTIGYELRSARPIPFDIVYTRTLGYGAVRFLLGDYSDLPGGMVCVVGGRIKILPFDAFMDPKTGRTKVRVVDVRSEDYRVARKYMIRLEKKDLEDPETLEKLAKLAKMEPEEFKKKYWHTTELP, MTYGYPKKWKENMTSGQVIAAELRLGIVSGEIESHIQLSENQVAQQFNVSRSPVRDAFKLLQTDQLIQLERMGAQVLPFGDQEKKEMYDLRLMLESFAFSKLSGTDTQHIIKEMKKQLEMMKVAVQFEDAEAFTQHDFEFHEVMIQATNHQYLKVFWNHLKPVMESLILISMRQRMANDPKDFERIHKNHQVFIDAVENDDASILRKAFHLNFDDVGENIEAFWLR, QPPAPRMIADGYQLLSELGALDERKGLTQIGHQLARFPTDPRIARMIMAAKQENCLSEVLIIAAALSLQDPRDRPFEHQQAADQAHQPFRDDR, MTNLMSALSKLSQALDSKNIGEVLLALQNFDEEFSAEKCEDVFVRCLQEIISWDLTVSLEISETVVRQMMNRLENQAVLEEMCNYIIKQQSSVTVEIAVEIMIEHGWILRTDDCREVWKQIESAKNTEKIEILARRMTANCRILRLSGAPKRFLEKLLKDVIISLNANKVNIPMKFLNELAIVSPFHPILVIEDFKKDSEYFYIPHVVSEETRFHLEVKEFTNFFQIESTYHKEQACQMLQVFNQIYKRMELIPQLEAPEIDKIVEFWLAALRIFNGYGIGMNDITESAKLLEKTASRYSLKSRPLFLKHFLKKISEKKDTNIGLEPQVVATIITTYQRNAFGLRSPEFYEELGEFWALCLKIKYDDVYFATVYFSAVFALAQAQAVFKIKKELCREVYHKILQPMHEQLVDFVKLKQVESNKATSEEEVMRLEHQNIGASYFSILTCTYKNAEDRILEFMKEN, MAHHHHHHMTILSLHGRNGADAQKWFESGLLPFPGGQKSFEMVSVMPALVYHHCMLYWAKLGCAALLQEGSVEMTGKAGSETLMFVVRNICCIQIAESPRCLPNWRLLDRVLDELLKRLDFVANCEDGVWSFASTTMRRMQCYLRSNIIRYLEVRDRPLEGQCGLLRYRGAFDCAINGVNSSGASGMGGCQTTDEVHVEVLSAETLRSAVQVMCGCDGVKVPCGDSSGGVKDGADALADLELEEFFCRYFLCSAPAAFDQPTKPTVRE, MSLGEGFPSFEEMVEKELEGYSGFRFLDRGIYAKQLEQWFRFFPKKQFLILKSENFFEDPAKEFRKVICFLNLPVWELPEYANVNWKVLARSKRVERYQKINKETRERLLYYFKPFNDQLYALINKNFGWKEGHHHHHH, MKRILLLGGITEALAIARKLGPEHIYSLAGVGRVPTDLACQLKVGGYGGAEGMAQYIRDQGVDLLLDATHPYAAQISRNAALAARIAGIPCWALRRTAWQPGPDDDWREVADWSALVTALAPFKRPLFTLGREPLQHLNEIPKHQFWTLRALDSYPGNDRCEVIGARGPFVLEDERQLFEQRNIDVLISKNSGSSSTEPKLDVARERGLPVLILKRPQLPDVDRILWSVDEVLGVLGLAETSPKPR, MGSDKIHHHHHHGASVQDLSNTKDAIVESETTLAENNNEYSNKNSLFYSDISSYEIFTDVNSEAALKNLYYNIDEFIDSDSSDVIVKGNIIEIEYVYIDGCSYSVLTVDVERAYKGEVQETITVYEDGGYTRLSDEKEQIEAHADLSQYTEEEMENLLINHTFMGAEHSNVGDTVILFLKTNEGSILGDSYRINCSVFGRYTLNKDSYIRPEFIVENDNPEKITTYSNMDTFEFSVSKSMLEDKLSQQ, MDNIVTESIKFESEPNYLQRGYHLFDISFLNGLTCVITNKIETDEIHLKIKLDWDERDIEKITGFIQLSYDGHQLKPIDSNFDKRGGICTIIVPKFLYEYRWSFSFNLKLHRDPAKPPQISNDLKSQVSYDTMFEPSRKHDAVLLIGEKKLHVNKAFLSYHSDYFSDLFAEKVDEKNGIPIENVTYENFGLLMSVIYPEAVFSNHQNAEVLLELGNRFKIPAVMRHVENQIVGDTTKFPNKRLISLAEKYGLQKLLAMEIQKMKSFDQAKKFKGSDDYLQLSDATKAKIFDRLIELS
